Assays:
Y. pestis LcrV protein [1] = target: T1, Y. pestis LcrV protein (Yersinia pestis KIM5, UniProt P0C7U7 1-326); test: Microcal (calorimetry)
T1 construct: also called LcrV antigen

Y. pestis LcrV protein [2] = target: T1, Y. pestis LcrV protein; test: SPR, BIACORE, LcrV immobilized on CM5 chip
Y. pestis LcrV protein [3] = target: T1, Y. pestis LcrV protein; test: SPR, BIACORE T200, LcrV on CM5 chip, kd/ka
Y. pestis LcrV protein [4] = target: T1, Y. pestis LcrV protein; test: SPR, BIACORE T200, LcrV on CM5 chip, 1:1 model
Y. pestis F1 protein [5] = target: T2, Y. pestis F1 protein (Yersinia pestis KIM5, UniProt P26948 22-170); test: SPR, BIACORE, F1 immobilized on CM5 chip
T2 construct: also called F1 antigen; Fl
T2 sequence (P26948 22-170 limits assumed): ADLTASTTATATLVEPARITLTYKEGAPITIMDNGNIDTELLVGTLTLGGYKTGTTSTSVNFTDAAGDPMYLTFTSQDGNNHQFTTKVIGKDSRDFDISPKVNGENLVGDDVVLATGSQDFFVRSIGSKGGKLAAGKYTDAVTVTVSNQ

Y. pestis YscF protein = target: T3, Y. pestis YscF protein (Yersinia pestis KIM5, UniProt O68691 1-87); test: ELISA of periplasmic extract on YscF antigen and on blank wells, OD405
T3 construct: also called YscF antigen
T3 sequence: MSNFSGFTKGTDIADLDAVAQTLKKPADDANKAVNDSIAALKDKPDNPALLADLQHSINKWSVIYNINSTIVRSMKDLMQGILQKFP

Y. pestis F1 protein [6] = target: T2, Y. pestis F1 protein; test: Microcal (calorimetry)

T1 sequence (P0C7U7 whole entry): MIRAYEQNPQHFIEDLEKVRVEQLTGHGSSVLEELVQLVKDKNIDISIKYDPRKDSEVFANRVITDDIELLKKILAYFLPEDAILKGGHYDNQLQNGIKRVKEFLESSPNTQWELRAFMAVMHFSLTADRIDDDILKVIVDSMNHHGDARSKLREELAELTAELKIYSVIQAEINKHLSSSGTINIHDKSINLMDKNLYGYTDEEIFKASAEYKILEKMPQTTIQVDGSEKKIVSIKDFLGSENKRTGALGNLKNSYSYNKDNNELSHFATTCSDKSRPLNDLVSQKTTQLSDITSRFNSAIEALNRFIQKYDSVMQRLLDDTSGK

B1: 1LCRV13 (VHH)
VHH: QVQLQESGGGLVRPGGSLKLSCAASGFTFNWYTMAWYRQVPGEERKMVATITGASGDTKYADSVKGRFTISRDNAKNTVTLQMNSLKPGDTAVYYCHAYLTYDSGSVKGVNYWGQGTQVTVSS
Y. pestis LcrV protein [1]
  Kd: 3.2 nM
Y. pestis LcrV protein [2]
  Kd: 0.00063 nM
Y. pestis LcrV protein [3]
  Kd: 0.00063 nM
Y. pestis LcrV protein [4]
  koff: 1.6e-07 s⁻¹
  kon: 250000 M⁻¹ s⁻¹

B2: 1LCRV81 (VHH)
VHH: QVQLQESGGGSVQPGGSLKLSCAASGFTFNWYTMAWYRQVPGEERKMVATITGASGDTKYADSVKGRSTISRDNAKNTVTLQMNSLKPGDTAVYYCHACLTYDSGSVKGVNYWGQGTQVTVSS
Y. pestis LcrV protein [2]
  Kd: 3.5 nM
Y. pestis LcrV protein [3]
  Kd: 3.5 nM
Y. pestis LcrV protein [4]
  koff: 0.00063 s⁻¹
  kon: 180000 M⁻¹ s⁻¹

B3: 1LCRV31 (VHH)
VHH: QVQLQESGGGLVQPGGSLGLSCAASGSLLNIYAMGWYRQAPGRQRELVATVTSSGTAEYADSVKGRFTISRDNAKNTVYLQMNSLRPEDTGVYYCNAHLRYGDYVRGPPEYNYWGQGTQVTVSS
Y. pestis LcrV protein [1]
  Kd: 0.76 nM
Y. pestis LcrV protein [2]
  Kd: 0.0019 nM
Y. pestis LcrV protein [3]
  Kd: 0.0019 nM
Y. pestis LcrV protein [4]
  koff: 3.1e-07 s⁻¹
  kon: 170000 M⁻¹ s⁻¹

B4: 3F59 (VHH)
VHH: QVQLQESGGGLVQPGGSLRLSCAASGFTFSSYAMSWVRLAPGKGLEWVSTINIAGGITSYADSVKGRFTISRDNAKNTLYLQMNSLKPEDTAVYYCAKTAANWSAQRGQGTQVTVSS
Y. pestis F1 protein [5]
  Kd: 5.9 nM

B5: 3yscf24 (VHH)
VHH: QVQLQESGGGLVQAGGSLKLSCTASQRTFSRYSLGWFRQAPGEERVFVAATTWSGISSDYADSVKGRFTISRDNAKNTGYLQMNNLKPEDTGVYYCAAGRSSWFAPWLTPYEYDYWGRGTQVTVSS
Y. pestis YscF protein
  binding result: binds

B6: 3yscf140 (VHH)
VHH: QVQLQESGGGLVQAGGSLRLACAASGETVDDLAIGWFRQAPGKEREEISCISGSDGSTYYADSLSGRFTISRDNVKNTVYLQMNSLKLEDTAVYYCYAEIYDRRWYRNDYWGQGTQVTVSS
Y. pestis YscF protein
  binding result: binds

B7: 3yscf75 (VHH)
VHH: QVQLQESGGGLVQAGDSRILSCTASGRTFGRPFRYTMGWFRRAPGKEREFVGGITRSGNNIYYSDSVKGRFTISRDNAKNTVYLQMNSLKPEDTAVYYCNADWGWRNYWGQGTQVTVSS
Y. pestis YscF protein
  binding result: binds

B8: 2LCRV11 (VHH)
VHH: QVQLQESGGGLVQPGGSTRLSCAASGFTLDIYAIGWFRQAPGKEHEGVSWIVGNDGRTYYIDSVKGRFTISRDNAKNTVYLEMNSLKPEDTAVYYCAAKFWPRYYSGRPPVGRDGYDYWGQGTQVTVSS
Y. pestis LcrV protein [2]
  Kd: 8.2 nM
Y. pestis LcrV protein [3]
  Kd: 8.2 nM
Y. pestis LcrV protein [4]
  koff: 0.0072 s⁻¹
  kon: 880000 M⁻¹ s⁻¹

B9: 1LCRV32 (VHH)
VHH: QVQLQESGGGMVEPGGSLRLSCAASGFRFSSYAMSWVRQAPGKGLERVSAINSDGDKTSYADSVKGRFTISRDNARNTLYLQMSNLKPEDTAVYYCADRDLYCSGSMCKDVLGGARYDFRGQGTQVTVSS
Y. pestis LcrV protein [1]
  Kd: 26 nM
Y. pestis LcrV protein [2]
  Kd: 22 nM
Y. pestis LcrV protein [3]
  Kd: 22 nM
Y. pestis LcrV protein [4]
  koff: 0.0073 s⁻¹
  kon: 340000 M⁻¹ s⁻¹

B10: 3yscf142 (VHH)
VHH: QVQLQESGGGLVQAGGSLRLSCAASGRTFSSHAMAWFRQGPGEERQFLAAIRWNGDNIHYSDSAKGRFTISRDLAKNTLYLQMNSLKPEDTAVYYCARGVYDYWGQGTQVTVSS
Y. pestis YscF protein
  binding result: binds

B11: 3F1 (VHH)
VHH: QVQLQESGGGLVQPGGSLRLSCAASGFTFSTSAMSWIRQPPGKAREVVATITSAGGSISYVNSVKGRFTISRDNAKNTLYLQMNMLKPEDTAVYYCARLVNLAQTGQGTQVTVSS
Y. pestis F1 protein [6]
  Kd: 110 nM
Y. pestis F1 protein [5]
  Kd: 97 nM

B12: 3F55 (VHH)
VHH: QVQLQESGGGLVQAGGSLRLSCAVSGMMYIREAIRWYRQAPGKQREWVAFVSSTGNPRYTDSVKGRFTISRDNAKNTVYLQMNSLTPEDTAVYYCNTYLGSRDYWGQGTQVTVSS
Y. pestis F1 protein [6]
  Kd: 190 nM
Y. pestis F1 protein [5]
  Kd: 2.2 nM

B13: 3F85 (VHH)
VHH: QVQLQESGGGLVQPGGSLRLSCAVSGMMYIRYTMRWYRQAPGKQREWVAVVSSTGNPHYADSVKGRFTISRDNAKNTVYLQMNSLTPEDTAVYYCNTYLGSRDYWGQGTQVTVSS
Y. pestis F1 protein [6]
  Kd: 110 nM
Y. pestis F1 protein [5]
  Kd: 15 nM

B14: 3F5 (VHH)
VHH: QVQLQESGGGLVQSGDSLRLSCAASGFTFSNYAMSWVRQAPGKGLEWVSTINSGGGSTSYAYSVKGRFTISRDNAKNTLYLQMNSLKPEDTAVYYCAKTASHIPLSQGTQVTVSS
Y. pestis F1 protein [6]
  Kd: 83 nM
Y. pestis F1 protein [5]
  Kd: 47 nM

B15: 4F1 (VHH)
VHH: QVQLQESGGGLVQPGGSLSLSCSASGIIFSDYALTWYRQAPGKQREWVAQITRSQNINYTGSVKGRFTVSRDNAKNTVHLQMNSLKPEDTAVYYCHAYDGRRPPYWGQGTQVTVSS
Y. pestis F1 protein [5]
  Kd: 520 nM

B16: 4F6 (VHH)
VHH: QVQLQESGGGSVQPGGSLSLSCSASGIIFSDYALTWYRQAPGKQREWVAQITRSQNINYTGSVKGRFTVSRDNAKNTVHLQMNSLKPEDTAVYYCHAYDGRRRTYWGQGTQVTVSS
Y. pestis F1 protein [6]
  Kd: 80 nM
Y. pestis F1 protein [5]
  Kd: 34 nM

B17: 4F34 (VHH)
VHH: QVQLQESGGGSVQPGGSLSLSCSASGIIFSDYALTWYRQAPGKQREWVAQITRSQNINYTGSVKGRFTVSRDNAKNTVHLQMNSLKPEDTAVYYCHAYDGRRPPYWGQGTQVTVSS
Y. pestis F1 protein [5]
  Kd: 390 nM

B18: 3F61 (VHH)
VHH: QVQLQESGGGLVQPGGSLRLSCSASGIIFSDYALTWYRQAPGKQREWVAQITRSQNINYTGSVKGRFTVSRDNAKNTVHLQMNSLKPEDAAVYYCHAYDGRRPPYWGQGTQVTVSS
Y. pestis F1 protein [6]
  Kd: 290 nM
Y. pestis F1 protein [5]
  Kd: 68 nM

B19: 3yscf57 (VHH)
VHH: QVQLQESGGGLVQAGGSLRLSCAASGRTWRAYYMGWFRQAPGKEREFVAVMSRSGGTTSYADSVKGRFTISRDNAKNTVYLQMNNLAPEDTATYYCKAGGGMYGPDLYGMTYWGKGTQVTVSS
Y. pestis YscF protein
  binding result: binds

B20: 4F59 (VHH)
VHH: QVQLQESGGGLVRPGGSLRLSCEASGTTFRSLVMKWYRQAPGKEREWVAFISSPGDRTRYTEAVKGRFTISRDNAKNALYLQMNGLKPEDTAVYYCNANGIYWGKGTQVTVSS
Y. pestis F1 protein [6]
  Kd: 83 nM
Y. pestis F1 protein [5]
  Kd: 27 nM

B21: 1LCRV28 (VHH)
VHH: QVQLQESGGGLVQPGGSLRLSCAASGGTLGYYAIGWFRQAPGKEREAVSCITSSDTSAYYADSAKGRFTISRDNAKNTMYLQMNNLKPEDTAVYYCAAGYYFRDYSDSYYYTGTGMKVWGKGTQVTVSS
Y. pestis LcrV protein [1]
  Kd: 0.2 nM
Y. pestis LcrV protein [2]
  Kd: 0.19 nM
Y. pestis LcrV protein [3]
  Kd: 0.19 nM
Y. pestis LcrV protein [4]
  koff: 8.1e-05 s⁻¹
  kon: 430000 M⁻¹ s⁻¹

B22: 1LCRV47 (VHH)
VHH: QVQLQESGGGLVQPGGSLILSCTISGASLRDRRVTWSRQGPGKSLEIIAVMAPDYGVHYFGSLEGRVAVRGDVVKNTVYLQVNALKPEDTAIYWCSMGNIRGLGTQVTVSS
Y. pestis LcrV protein [2]
  Kd: > 1000 nM

B23: 3yscf15 (VHH)
VHH: QVQLQESGGGLVQAGGSLRLSCAVSGRTFSRYAMGWFRQAPGKEREFVAAISWSGSSTYYADSVKGRFTISRDHAKNVMYLQMNGLKPEDTGVYVCARPAYGLRPPYNYRGQGTQVTVSS
Y. pestis YscF protein
  binding result: binds

B24: 3yscf124 (VHH)
VHH: QVQLQESGGGLVQAGGSLRLSCVASGRAFSNYAMAWFRQAPGKEREFVAANWRSGGLTDYADSVKGRFTISRDDAKNTVYLQMNSLKPEDTAVYYCAAGGGSRWYGRTTASWYDYWGQGTQVTVSS
Y. pestis YscF protein
  binding result: binds

Reference: patent US20210139565A1 (GOVERNMENT OF THE UNITED STATES AS REPRESENTED BY THE …, published 2021)
